This passage reports binding result and Kd results from publication PMC3988567 (RNA, 2014).

Values joined by “and” are separate entries in the source; they are usually repeats but may differ in a detail not shown here. Equal values may be shown once.

One assay deals with T1, Full-length Snu66 (S. cerevisiae, UniProt Q12420 1-587).
T1 sequence: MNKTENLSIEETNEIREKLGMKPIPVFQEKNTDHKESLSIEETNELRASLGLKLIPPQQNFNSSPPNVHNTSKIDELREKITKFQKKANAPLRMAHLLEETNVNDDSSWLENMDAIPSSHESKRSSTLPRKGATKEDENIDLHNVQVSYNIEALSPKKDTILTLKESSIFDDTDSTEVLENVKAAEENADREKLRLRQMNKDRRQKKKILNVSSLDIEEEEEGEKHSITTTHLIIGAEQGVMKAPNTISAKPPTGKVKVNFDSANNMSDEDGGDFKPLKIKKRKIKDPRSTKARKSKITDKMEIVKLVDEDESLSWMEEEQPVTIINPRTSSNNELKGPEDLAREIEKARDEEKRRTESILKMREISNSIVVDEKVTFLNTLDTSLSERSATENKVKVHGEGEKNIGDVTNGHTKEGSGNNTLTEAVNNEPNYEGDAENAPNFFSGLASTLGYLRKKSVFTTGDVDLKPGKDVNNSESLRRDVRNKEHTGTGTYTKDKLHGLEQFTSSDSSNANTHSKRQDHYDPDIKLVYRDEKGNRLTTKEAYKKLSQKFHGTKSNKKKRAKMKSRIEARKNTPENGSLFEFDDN
Description: pull-down.

A further assay addresses ubiquitin (UniProt P0CG48 1-76). As to the kind of experiment: ITC.

B1: GST-Hub1 (natural protein)
chain: MIEVVVNDRLGKKVRVKCLAEDSVGDFKKVLSLQIGTQPNKIVLQKGGSVLKDHISLEDYEVHDQTNLELYYL
Take B1: the binding result with Full-length Snu66 is listed as “binds”.

B2: ZnF-UBP domain from USP5 (domain or fragment)
chain: KQEVQAWDGEVRQVSKHAFSLKQLDNPARIPPCGWKCSKCDMRENLWLNLTDGSILCGRRYFDGSGGNNHAVEHYRETGYPLAVKLGTITPDGADVYSYDEDDMVLDPSLAEHLSHFGIDMLKMQKTDK
Turning to B2, the Kd (commonly the equilibrium constant for the complex coming apart) in the assay with ubiquitin was 2400 nM and 2300 nM.
